# Test results as given in US6492123.
# Legend:
# hen egg lysozyme (hen) [1] = biological target: hen egg lysozyme (hen) (UniProt P00698); test: BIAcore, HEL coated chip
# hen egg lysozyme (hen) [2] = biological target: hen egg lysozyme (hen) (UniProt P00698); test: phage ELISA, 50 µl phage supernatant, anti-M13 detection; background 0.1
# Sequence of UniProt P00698 (P00698 19-147 limits assumed): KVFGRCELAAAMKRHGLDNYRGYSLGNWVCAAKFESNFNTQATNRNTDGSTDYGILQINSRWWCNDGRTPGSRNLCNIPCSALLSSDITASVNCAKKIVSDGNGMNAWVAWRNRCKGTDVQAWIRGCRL
Substance,koff (hen egg lysozyme (hen) [1]),absorbance signal (hen egg lysozyme (hen) [2])
chimaeric FabD1.3,0.003 s⁻¹,
NQ11/D1.3/0 bispecific diabody displayed on phage (pHEN1) (bispecific antibody),,2.8
"construct VI bispecific NQ11/D1.3 diabody, 5-residue linkers (bispecific antibody)",0.0022 s⁻¹,
